The values that follow come from publication PMC9732051, “Divergent self-association properties of paralogous proteins TRIM2 and TRIM3 regulate their E3 ligase activity” (Nature Communications, 2022).

Changes are numbered by the printed parent chain. Names and notes keep the numbering of the source.

The target in data set [1] is T1, 15N-labelled UBE2D3 (C85S) (UniProt P61077 1-147, mutation of the catalytic cysteine (C85) to serine).
T1 construct: UBE2D3 with the catalytic cysteine (C85) mutated to serine; Uniformly 15N-enriched; source: bacteria grown in M9 minimal medium with 15N-ammonium chloride
The data set is described as follows: NMR titration; 1H-15N HSQC of 200 µM 15N-UBE2D3 (C85S) titrated with unlabelled RING (0 to 2 molar equivalents); 298 K; 25 mM Na-phosphate pH 7.0, 150 mM NaCl; Kd from fits of chemical shift changes. Conditions: both partners purified.
T1 sequence (P61077 whole entry C85S): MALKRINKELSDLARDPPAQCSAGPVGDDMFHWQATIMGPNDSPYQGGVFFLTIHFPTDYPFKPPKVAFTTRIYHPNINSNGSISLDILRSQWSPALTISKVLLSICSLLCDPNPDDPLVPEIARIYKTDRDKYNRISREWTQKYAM

Data set [2] concerns the molecule itself. The data set is described as follows: SEC-MALLS; Superdex 75 or 200 10/300 GL Increase; 20 mM HEPES pH 7.5, 150 mM NaCl, 0.5 mM TCEP, 3 mM NaN3; 25 °C; 100 μl samples at multiple concentrations (5, 3, 2 and 1 mg/ml in Fig. 1b).
The target in data set [3] is 15N-labelled UBE2D3 (C85S) (UniProt P61077 1-147, mutation of the catalytic cysteine (C85) to serine). The data set is described as follows: NMR; residue K101.
Target sequence in this assay (P61077 whole entry C85S): as above

B1: human TRIM2 RING (2-95) (domain or fragment, UniProt Q9C040 2-95, looked up)
chain: ASEGTNIPSPVVRQIDKQFLICSICLERYKNPKVLPCLHTFCERCLQNYIPAHSLTLSCPVCRQTSILPEKGVAALQNNFFITNLMDVLQRTPG
notes: human TRIM2, RING construct, residues 2-95; likely on this pET49b construct too; also called T2R; RING1; source: E. coli BL21 (DE3), purified (Ni-NTA, His6 cleaved by HRV 3C, SEC); not shown: His6, N-terminal, cleaved
Consider B1, for which the values for the Kd in data set [1] and in data set [3] were ~590 µM and 643 µM, respectively. The “stoichiometry N” value in data set [2] turned out to be 2.

B2: chimera of the TRIM2 N- and C-terminal α-helices (2-16/84-95) and the TRIM3 core RING (16-82) (other, human, UniProt Q9C040 2-16, looked up)
chain: B1 chain with I21V, E27D, K30Q, N31C, H53Q, K71Q, A74S
notes: human TRIM2, N-terminal α-helix, residues 2-16; human TRIM3, core RING domain, residues 16-82; human TRIM2, C-terminal α-helix, residues 84-95; also called T2αs-T3Rcore; T2Rαs-T3Rcore; source: E. coli BL21 (DE3), purified (Ni-NTA, His6 cleaved by HRV 3C, SEC); not shown: His6, N-terminal, cleaved
Turning to B2, the binding result in data set [2] was “binds”.

B3: human TRIM3 tripartite motif RBCC (2-313) (domain or fragment, UniProt O75382 2-313, looked up)
chain: AKREDSPGPEVQPMDKQFLVCSICLDRYQCPKVLPCLHTFCERCLQNYIPAQSLTLSCPVCRQTSILPEQGVSALQNNFFISSLMEAMQQAPDGAHDPEDPHPLSVVAGRPLSCPNHEGKTMEFYCEACETAMCGECRAGEHREHGTVLLRDVVEQHKAALQRQLEAVRGRLPQLSAAIALVGGISQQLQERKAEALAQISAAFEDLEQALQQRKQALVSDLETICGAKQKVLQSQLDTLRQGQEHIGSSCSFAEQALRLGSAPEVLLVRKHMRERLAALAAQAFPERPHENAQLELVLEVDGLRRSVLNLG
notes: human TRIM3, RBCC construct, residues 2-313; also called TRIM3 RBCC; source: E. coli BL21 (DE3), purified (Ni-NTA, His6 cleaved by HRV 3C, SEC); not shown: His6, N-terminal, cleaved
On to B3, for which, in data set [2], the “stoichiometry N” value worked out at 2.

B4: human TRIM3 RING (2-95) (domain or fragment)
chain: GPGAKREDSPGPEVQPMDKQFLVCSICLDRYQCPKVLPCLHTFCERCLQNYIPAQSLTLSCPVCRQTSILPEQGVSALQNNFFISSLMEAMQQAPDG
notes: tripeptide Gly-Pro-Gly left at the N-terminus by 3C protease cleavage; human TRIM3, RING construct, residues 2-95; also called T3R; source: E. coli BL21 (DE3), purified (Ni-NTA, His6 cleaved by HRV 3C, SEC); not shown: His6, N-terminal, cleaved
As to B4, in data set [1], the Kd was ~300 µM.

B5: human TRIM2 tripartite motif RBCC (2-316) (domain or fragment, UniProt Q9C040 2-316, looked up)
chain: ASEGTNIPSPVVRQIDKQFLICSICLERYKNPKVLPCLHTFCERCLQNYIPAHSLTLSCPVCRQTSILPEKGVAALQNNFFITNLMDVLQRTPGSNAEESSILETVTAVAAGKPLSCPNHDGNVMEFYCQSCETAMCRECTEGEHAEHPTVPLKDVVEQHKASLQVQLDAVNKRLPEIDSALQFISEIIHQLTNQKASIVDDIHSTFDELQKTLNVRKSVLLMELEVNYGLKHKVLQSQLDTLLQGQESIKSCSNFTAQALNHGTETEVLLVKKQMSEKLNELADQDFPLHPRENDQLDFIVETEGLKKSIHNLG
notes: human TRIM2, RBCC construct, residues 2-316; also called TRIM2 RBCC; source: E. coli BL21 (DE3), purified (Ni-NTA, His6 cleaved by HRV 3C, SEC); not shown: His6, N-terminal, cleaved
Take B5: in data set [2], the “stoichiometry N” value amounted to 4.

B6: human TRIM2 RING-B-box2 (2-156) (domain or fragment, UniProt Q9C040 2-156, looked up)
chain: ASEGTNIPSPVVRQIDKQFLICSICLERYKNPKVLPCLHTFCERCLQNYIPAHSLTLSCPVCRQTSILPEKGVAALQNNFFITNLMDVLQRTPGSNAEESSILETVTAVAAGKPLSCPNHDGNVMEFYCQSCETAMCRECTEGEHAEHPTVPLKD
notes: human TRIM2, RB2 construct, residues 2-156; also called TRIM2 RB2; source: E. coli BL21 (DE3), purified (Ni-NTA, His6 cleaved by HRV 3C, SEC); not shown: His6, N-terminal, cleaved
As for B6, the “stoichiometry N” value in data set [2] is 2.
